Results from doi:10.1101/2020.07.07.187567.

Target: LhgR, L-2-HG catabolism regulator of Pseudomonas putida W619 (His6-tagged) (Pseudomonas putida W619)
Experiment: SEC

LhgR, L-2-HG catabolism regulator of Pseudomonas putida W619 (His6-tagged) (natural protein)
stoichiometry N: 2
